The target of the assay is FcγRIIIa F158 extracellular domain (UniProt P08637). In words: SPR. On the technique in general: SPR reads the build-up and loss of mass on a sensor chip optically.
Sequence of UniProt P08637 (P08637 17-208): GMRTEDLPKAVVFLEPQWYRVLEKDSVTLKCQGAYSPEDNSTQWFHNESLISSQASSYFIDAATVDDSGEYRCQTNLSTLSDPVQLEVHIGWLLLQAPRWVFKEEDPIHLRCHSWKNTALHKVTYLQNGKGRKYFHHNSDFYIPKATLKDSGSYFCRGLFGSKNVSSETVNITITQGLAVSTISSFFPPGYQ

What is called Kd is the concentration at which binding is half-saturated. Read a high Kd as lower affinity. “Humira® complexed with TNF homotrimer (2:1 molar ratio) (from UniProt P01375 77-233)” displayed a Kd of 6.9 nM.

Substance “MSB11022 complexed with TNF homotrimer (2:1 molar ratio) (from UniProt P01375 77-233)” gave a dissociation constant (Kd) of 8 nM.
